The text below walks through data of a protein production outcome set (Wang et al. 2014).

A short description of the data set: label from the status in PepcDB records.
For “MWNLTRRQWRQILVTVILALAVLLFFLWPLPKYIEGPGEADNLKSFVTVDKHPDKHKGKYMITSVALAQARPVSYLYAKFNPYYSIESVASVTGGESNATYDKVQNFYMKSAINESIYTAYRAAHKTVKRHYLGIYVLSVDRQSPFAQALKVGDTVTEVNGHHFNSMTGYQRYIQRQKVGQRATITYQRNGKTHHVTAKLMRLPTKKAGIGITLTDNVKVSARPKVQVNPGNIGGPSGGLMFSLQIYTQVTGQDLRHGRKIAGTGTVDGDGNVGEIGGIDKKIIAAKRAGATVFFAPYVKPTKLLLKYEEQHQTNYQLAKATAKKYAPNMKVVPVKSFDDAVHYLRTHR”, the protein production result is “failed”.

As for “MNYKELLEFNDYAMDLTIRMAHHSTAIENNPLSLAETISILTTEYIPREMPQRAFFEVKNYQNMLFFLLENLNKGQSVDSFFIRELHGILMNFLLPNKGAFKTTDNTILGASFETTPIFKCLWL”, the protein production result is “failed”.

Take “MEVLKDFLLFYGGLFAITNPIGAVPVFIAVTRNLSPEKRKEIARKTSTTVMVTLLVFALVGEWIFKFFGASTDAFSIAGGIILFRMSLEMLSGKLSSVKISEEEEHISEEAVTLEEVAIIPLAIPLLSGPGAITTTMLYMAKSSTMIEKSIVLLVVVAIGITVWIILSAANRIHQKLGTIGIKVMTRMMGLILASMAVQMVINGVKGAFNI”: the protein production result is reported as “failed”. Under “MGLSKVEEKYRKSHEIFLKRLAALPKPEFDNTLPVHEKLDEIKKTVAEHQVTIICGETGSGKTTQLPKICLELGRGVAGLIGHTQPRRLAARSVAERIAEELKSEIGSAVGYKVRFTDHTSRDACVKLMTDGILLAETQTDRYLAAYDTIIIDEAHERSLNIDFLLGYLKQLLPRRPDLKVIITSATIDAERFSRHFNGAPVLEVSGRTYPVEILYRPLTGKDEDDAEVELTDAIVDAADELARHGEGDILVFLPGEREIRETAEALRKSTLRRNDEILPLFARLSHAEQHKIFHPSGAKRRIVLATNVAETSLTVPGIKYVIDTGLARVKRYSARAKVEQLHVEKISQAAARQRSGRCGRVSAGVCIRLFSEEDFNSRPEFTDPEIVRSNLAAVILRMASLNLGDVAAFPFLEMPDSRYINDGFQVLLELGAVEAVLEHHHHHH” stands “failed”; under “MGFEVRRRLSVADTVTLFNAVVGFVAGAIAFTDPHLAARLILLAVIADAIDGIVARNGDSSAVGPLLDSVTDVVSFGATPSLFLYVLLTDAYGGIESAHPAVFVGLALLASAYVVCSIVRTAFYSTYFDSPDERPGMPNTLGSIIIATAYLSGITNPLVLSVGALGLSLAMIAPFDYPKPGPKHAVPMGVVQAVAVVAPAALFRAGPRAMLAIALLFFALGPWFYPGE”, “failed”; under “MTRPERAPLSASARIEVPFHDVDAMAVCWHGHYLKYFEIGRAALLRAFDYDYPEMRASGYLWPVVEAHLKYIRPATYGQRIEVRATLIEYENRLKIGYEIADCASGQRLTKGHTIQVAVCAATSELQFVSPAVVFEKVERAWADLEHHHHHH”, “failed”. In the case of “MTSQITANGTQRLPEPVSEHEAVPPPPPTAAGRPRPPTSQLFSRGNLASSRATGGDKSGLARPSTAVRAVGYAANCESAHQRFEQFFLEKAKQQTLSSRAAVDAIKDVNPQMKYKNLEEKIVKLLESSIVLAWQGSPNKLLNLDTKLAEALSKAKEAFSLDRTLHQFRDQHGENVYHNFDLTYAQYERSEMHIEALNTYSIMAKNKMFPHVNQLKLNMGNIYYSMGIYQKAVKMYRMALDSVPKSLSQLRLKIRENIGILFIRMGSYSDAASSFEFIMTERANIRSSIHLLLCYFALGDVEKVKLAFRRLCDVQTEAIESDMESETNIIKLQQQAEPIQQIGETDGYQSLNNEPVTGSVIKAEGGGKLNETVKFAATVKHRYVVQALKKDELAVYRNERRNAVKRSITMIVDLISPFIEDNYNDGYNWCIEIIKTSNLAWLANELELNKALVYLRQNDVHQAIETLQMYDRKSEGSMTASALTNLSFIYIKMASHCVNQLHEIGSLKNNAPGLINAGIVELGSHNLILASERFEGALQLQPMNFEARYNLGLVALAQNDYELAEERFELLKEQLMLPSSVQHSHVFYQLAKLQERRLESGLISNFTPGAALQAYLQVVGISASDIDSRLFEKVGSLYEQIQDHQEANQYYNEAYRINMSDIGIASSIGSYYIKLQATERALFYYERAVLADPNDPNLMLRIASCFRNSYLPTKQYLGLFQKIHARFPDNLTCIRALMQVTKSLELGDLYERYASEYTRLQSQQQERQSEQRYQQQRFPSAAKFTIRQSNEEHLKEVGENFNSVVHTQSPYTSILQFDPLGPPAERPKTGRPLQSRDDVDDDAEMNPESLLPI” it was “failed”.
